This is an account of results in patent publication US20220054955A1.

In the assay the target is GST. Put plainly: photo-crosslinking of 7 mg/ml GST with 1 mM aziethyl glutathione (337 nm, 30 minutes), whole-protein LCMS.

On to aziethyl glutathione, for which the percent of GST molecules covalently crosslinked came to 40%.
